Test results: paper PMC3859963 (Molecular cancer therapeutics, 2013)
Square brackets hold non-standard residues; d marks the D form. Ends that are not written are not given here.

Biological target: CD44s (UniProt P16070-12 21-361)
Experiment: flow cytometry on cells

[dK][dI][dK][dM][dV][dI][dS][dW][dK]G (also: 5(6)-FAM label, position not given here) [5(6)-FAM-HYD1]
fold increase of binding versus vector only cells: 1.5 fold
